From patent EP4786492A1

Tests used:
[1] = target: DLL3 endogenously expressed on NCI-H82 cells (UniProt Q9NYJ7); test: FACS on NCI-H82 cells; antibody 0.8 nM
[2] = target: DLL3 endogenously expressed on NCI-H82 cells (UniProt Q9NYJ7); test: FACS on NCI-H82 cells; antibody 0.032 nM
[3] = target: monkey DLL3 on CHO-K1-cyno DLL3 cells (cynomolgus monkey); test: FACS, CHO-K1-cyno DLL3 cells, 0.16 nM antibody
[4] = target: human DLL3 protein expressed on CHO-K1 recombinant cells (human DLL3 extracellular segment fused to EpCAM transmembrane and intracellular regions) (human) (UniProt Q9NYJ7); test: FACS, CHO-K1 hDLL3 cells, 0.16 nM antibody
human DLL3 protein expressed on CHO-K1 recombinant cells (human DLL3 extracellular segment fused to EpCAM transmembrane and intracellular regions) (human), sequence (Q9NYJ7 other isoform, or with tags, fused parts or gaps limits assumed): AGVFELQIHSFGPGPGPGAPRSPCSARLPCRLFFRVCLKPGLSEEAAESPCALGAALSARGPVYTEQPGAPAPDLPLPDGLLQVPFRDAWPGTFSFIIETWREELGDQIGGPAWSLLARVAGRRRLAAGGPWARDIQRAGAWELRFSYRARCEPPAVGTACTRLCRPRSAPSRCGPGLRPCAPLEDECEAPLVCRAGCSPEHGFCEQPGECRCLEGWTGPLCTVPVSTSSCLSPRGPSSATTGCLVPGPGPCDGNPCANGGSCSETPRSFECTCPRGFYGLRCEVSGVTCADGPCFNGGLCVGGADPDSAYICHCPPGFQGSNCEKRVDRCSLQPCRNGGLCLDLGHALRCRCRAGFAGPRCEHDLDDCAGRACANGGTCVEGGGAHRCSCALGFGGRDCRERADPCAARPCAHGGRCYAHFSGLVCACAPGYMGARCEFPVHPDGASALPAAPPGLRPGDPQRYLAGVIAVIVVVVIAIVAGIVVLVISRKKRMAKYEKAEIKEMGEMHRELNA

[5] = target: human DLL3 protein expressed on CHO-K1 recombinant cells (human DLL3 extracellular segment fused to EpCAM transmembrane and intracellular regions) (human) (UniProt Q9NYJ7); test: FACS, CHO-K1 hDLL3 cells, 4 nM antibody
[6] = target: DLL3 endogenously expressed on NCI-H82 cells (UniProt Q9NYJ7); test: FACS on NCI-H82 cells; antibody 100 nM
[7] = target: human DLL3 protein expressed on CHO-K1 recombinant cells (human DLL3 extracellular segment fused to EpCAM transmembrane and intracellular regions) (human) (UniProt Q9NYJ7); test: FACS, CHO-K1 hDLL3 cells, 100 nM antibody
[8] = target: DLL3 endogenously expressed on NCI-H82 cells (UniProt Q9NYJ7); test: FACS on NCI-H82 cells; antibody 0.16 nM
[9] = target: human DLL3 protein expressed on CHO-K1 recombinant cells (human DLL3 extracellular segment fused to EpCAM transmembrane and intracellular regions) (human) (UniProt Q9NYJ7); test: FACS, CHO-K1 hDLL3 cells, 20 nM antibody
[10] = target: human DLL4 protein (Acro, Cat. No. DL4-H5227) (human) (UniProt Q9NR61); test: ELISA, coated hDLL4; maximum over 0.1, 1, 10, 100 nM antibody
human DLL4 protein (Acro, Cat. No. DL4-H5227) (human), sequence (Q9NR61 27-524 limits assumed): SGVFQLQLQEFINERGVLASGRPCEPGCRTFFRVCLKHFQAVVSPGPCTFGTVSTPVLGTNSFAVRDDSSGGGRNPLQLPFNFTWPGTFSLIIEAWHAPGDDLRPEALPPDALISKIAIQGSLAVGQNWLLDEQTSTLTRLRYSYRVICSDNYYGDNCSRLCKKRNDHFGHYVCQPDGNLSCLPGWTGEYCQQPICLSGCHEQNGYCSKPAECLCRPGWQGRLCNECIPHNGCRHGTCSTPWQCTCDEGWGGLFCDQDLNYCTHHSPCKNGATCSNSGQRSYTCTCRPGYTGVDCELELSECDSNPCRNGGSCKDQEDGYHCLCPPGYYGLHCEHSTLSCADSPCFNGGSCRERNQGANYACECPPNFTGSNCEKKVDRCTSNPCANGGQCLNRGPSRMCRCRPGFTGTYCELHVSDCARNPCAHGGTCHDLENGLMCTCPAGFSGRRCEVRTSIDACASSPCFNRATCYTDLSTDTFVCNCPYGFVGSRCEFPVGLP

[11] = target: DLL3 endogenously expressed on NCI-H82 cells (UniProt Q9NYJ7); test: FACS on NCI-H82 cells; antibody 4 nM
[12] = target: human delta-like ligand 3 (DLL3) on SHP77 cells (human) (UniProt Q9NYJ7); test: FACS on SHP77 cells
human delta-like ligand 3 (DLL3) on SHP77 cells (human), sequence (Q9NYJ7 27-618, stated change not applied): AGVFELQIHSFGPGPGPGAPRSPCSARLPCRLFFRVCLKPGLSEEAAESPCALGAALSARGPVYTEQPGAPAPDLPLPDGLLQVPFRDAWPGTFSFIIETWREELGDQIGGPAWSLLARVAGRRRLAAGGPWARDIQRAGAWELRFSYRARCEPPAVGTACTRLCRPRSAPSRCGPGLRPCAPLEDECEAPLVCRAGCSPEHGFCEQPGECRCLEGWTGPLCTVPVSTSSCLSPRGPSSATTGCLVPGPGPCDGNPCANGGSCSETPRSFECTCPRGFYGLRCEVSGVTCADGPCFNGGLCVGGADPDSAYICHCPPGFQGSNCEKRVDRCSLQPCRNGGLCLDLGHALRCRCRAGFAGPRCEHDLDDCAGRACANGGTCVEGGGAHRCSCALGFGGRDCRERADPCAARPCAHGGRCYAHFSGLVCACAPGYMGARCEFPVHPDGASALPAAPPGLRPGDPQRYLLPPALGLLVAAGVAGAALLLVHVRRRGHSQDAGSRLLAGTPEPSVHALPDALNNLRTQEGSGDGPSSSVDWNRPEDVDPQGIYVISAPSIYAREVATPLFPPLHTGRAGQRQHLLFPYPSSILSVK

[13] = target: monkey DLL3 on CHO-K1-cyno DLL3 cells (cynomolgus monkey); test: FACS, CHO-K1-cyno DLL3 cells, 0.8 nM antibody
[14] = target: human DLL3 protein expressed on CHO-K1 recombinant cells (human DLL3 extracellular segment fused to EpCAM transmembrane and intracellular regions) (human) (UniProt Q9NYJ7); test: FACS, CHO-K1 hDLL3 cells, 0.8 nM antibody
[15] = target: human DLL3 protein (extracellular segment, His tag) (human) (UniProt Q9NYJ7); test: SPR (Biacore 8K), antibody captured on Protein A chip, DLL3 antigen in solution, 1:1 Langmuir fit
human DLL3 protein (extracellular segment, His tag) (human), sequence (Q9NYJ7 27-492): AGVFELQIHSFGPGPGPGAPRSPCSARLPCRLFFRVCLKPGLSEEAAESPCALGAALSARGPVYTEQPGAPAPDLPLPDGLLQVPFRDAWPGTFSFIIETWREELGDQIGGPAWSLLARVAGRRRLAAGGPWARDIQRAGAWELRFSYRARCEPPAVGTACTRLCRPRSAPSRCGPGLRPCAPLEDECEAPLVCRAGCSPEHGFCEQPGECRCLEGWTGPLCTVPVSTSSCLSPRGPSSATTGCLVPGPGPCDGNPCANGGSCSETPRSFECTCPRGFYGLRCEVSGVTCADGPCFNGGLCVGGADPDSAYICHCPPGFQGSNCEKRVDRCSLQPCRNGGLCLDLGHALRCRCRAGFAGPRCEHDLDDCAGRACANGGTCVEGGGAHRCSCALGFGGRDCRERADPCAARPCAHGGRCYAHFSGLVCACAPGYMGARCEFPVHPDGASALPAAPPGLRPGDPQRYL

[16] = target: human DLL3 protein expressed on CHO-K1 recombinant cells (human DLL3 extracellular segment fused to EpCAM transmembrane and intracellular regions) (human) (UniProt Q9NYJ7); test: FACS, CHO-K1 hDLL3 cells, 0.0064 nM antibody
[17] = target: monkey DLL3 on CHO-K1-cyno DLL3 cells (cynomolgus monkey); test: FACS, CHO-K1-cyno DLL3 cells, 0.0064 nM antibody
[18] = target: monkey DLL3 on CHO-K1-cyno DLL3 cells (cynomolgus monkey); test: FACS, CHO-K1-cyno DLL3 cells, 0.032 nM antibody
[19] = target: DLL3 endogenously expressed on NCI-H82 cells (UniProt Q9NYJ7); test: FACS on NCI-H82 cells; antibody 0.0064 nM
[20] = target: human DLL3 protein expressed on CHO-K1 recombinant cells (human DLL3 extracellular segment fused to EpCAM transmembrane and intracellular regions) (human) (UniProt Q9NYJ7); test: FACS, CHO-K1 hDLL3 cells, 0.032 nM antibody
[21] = target: human DLL1 protein (Acro, Cat. No. DL1-H52H8) (human) (UniProt O00548); test: ELISA, coated hDLL1; maximum over 0.1, 1, 10, 100 nM antibody
human DLL1 protein (Acro, Cat. No. DL1-H52H8) (human), sequence (O00548 18-540 limits assumed): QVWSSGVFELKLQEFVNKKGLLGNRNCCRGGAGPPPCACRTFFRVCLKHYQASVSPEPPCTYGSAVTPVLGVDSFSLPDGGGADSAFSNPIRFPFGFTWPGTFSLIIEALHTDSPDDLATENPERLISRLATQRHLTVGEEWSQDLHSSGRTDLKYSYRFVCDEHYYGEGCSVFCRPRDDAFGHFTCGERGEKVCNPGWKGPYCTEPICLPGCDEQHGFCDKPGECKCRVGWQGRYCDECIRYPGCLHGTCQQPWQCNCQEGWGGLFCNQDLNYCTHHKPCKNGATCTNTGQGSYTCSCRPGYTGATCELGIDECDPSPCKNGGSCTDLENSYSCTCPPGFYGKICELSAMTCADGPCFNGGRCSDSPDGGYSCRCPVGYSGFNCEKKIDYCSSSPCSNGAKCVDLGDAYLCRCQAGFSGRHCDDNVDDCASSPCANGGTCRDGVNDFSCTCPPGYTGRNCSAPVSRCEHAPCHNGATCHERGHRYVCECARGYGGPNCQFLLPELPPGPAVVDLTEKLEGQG

[22] = target: DLL3 endogenously expressed on NCI-H82 cells (UniProt Q9NYJ7); test: FACS on NCI-H82 cells; antibody 0.00128 nM
[23] = target: DLL3 endogenously expressed on NCI-H82 cells (UniProt Q9NYJ7); test: FACS on NCI-H82 cells; antibody 20 nM
[24] = target: monkey DLL3 on CHO-K1-cyno DLL3 cells (cynomolgus monkey); test: FACS, CHO-K1-cyno DLL3 cells, 20 nM antibody
[25] = target: monkey DLL3 on CHO-K1-cyno DLL3 cells (cynomolgus monkey); test: FACS, CHO-K1-cyno DLL3 cells, 100 nM antibody
[26] = target: monkey DLL3 on CHO-K1-cyno DLL3 cells (cynomolgus monkey); test: FACS, CHO-K1-cyno DLL3 cells, 4 nM antibody
[27] = target: human DLL3 protein expressed on CHO-K1 recombinant cells (human DLL3 extracellular segment fused to EpCAM transmembrane and intracellular regions) (human) (UniProt Q9NYJ7); test: FACS, CHO-K1 hDLL3 cells, 0.00128 nM antibody
[28] = target: monkey DLL3 on CHO-K1-cyno DLL3 cells (cynomolgus monkey); test: FACS, CHO-K1-cyno DLL3 cells, 0.00128 nM antibody

monkey DLL3 on CHO-K1-cyno DLL3 cells (cynomolgus monkey), sequence (chain, as listed by the source limits assumed): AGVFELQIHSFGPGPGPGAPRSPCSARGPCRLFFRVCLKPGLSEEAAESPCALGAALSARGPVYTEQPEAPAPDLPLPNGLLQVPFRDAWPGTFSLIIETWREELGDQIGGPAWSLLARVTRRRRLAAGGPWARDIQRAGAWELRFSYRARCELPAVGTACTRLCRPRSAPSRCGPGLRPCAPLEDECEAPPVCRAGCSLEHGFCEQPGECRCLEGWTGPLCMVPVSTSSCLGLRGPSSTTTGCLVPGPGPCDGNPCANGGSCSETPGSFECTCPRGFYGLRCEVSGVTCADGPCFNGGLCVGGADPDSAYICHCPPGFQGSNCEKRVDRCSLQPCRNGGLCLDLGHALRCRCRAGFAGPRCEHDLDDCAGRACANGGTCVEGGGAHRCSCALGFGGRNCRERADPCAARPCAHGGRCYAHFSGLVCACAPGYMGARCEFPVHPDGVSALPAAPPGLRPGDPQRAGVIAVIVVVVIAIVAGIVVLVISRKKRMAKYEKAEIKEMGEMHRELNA
DLL3 endogenously expressed on NCI-H82 cells, sequence (Q9NYJ7 27-618): as the sequence (Q9NYJ7 27-618, stated change not applied) above

Binder | MFI [1] | MFI [2] | MFI [3] [MFI] | MFI [4] [MFI] | MFI [5] [MFI] | MFI [6] | MFI [7] [MFI] | MFI [9] [MFI] | MFI at 0.00128 nM [12] [MFI] | MFI at 0.0064 nM [12] [MFI] | MFI at 0.032 nM [12] [MFI] | MFI at 0.16 nM [12] [MFI] | MFI at 0.8 nM [12] [MFI] | MFI at 4 nM [12] [MFI] | MFI at 20 nM [12] [MFI] | MFI at 100 nM [12] [MFI] | MFI [14] [MFI] | MFI [16] [MFI] | MFI [20] [MFI] | MFI [27] [MFI] | also measured
Hab008L1H2a-hFc (scFv, part only; not given: VL-VH linker and human IgG1 Fc, V domains shown, not shown: another chain or arm of the molecule; a dimerising Fc or GST; small tags and cut ends) VL: DIQMTQSPSSLSASVGDRVTITCKASQNVGTAVAWYQQKPGKSPKLLIFSASIRYTGVPSRFSGSGSGTDFTLTISSLQPEDFATYYCQQYSSSPYTFGGGTKVEIK VH: EVQLVQSGAEVKKPGASVKVSCKASGYTFTDYYMNWVRQAPGQRLEWMGIINPYNSGTSYNQKFRGRVTLTVDKSASTAYMELSSLRSEDTAVYYCSRYDYDYDVEGAMDYWGQGTTVTVSS | 312 | 134 | 1540 | 866 | 7440 | 617 | 7690 | 7660 | 119 | 121 | 126 | 144 | 187 | 297 | 532 | 758 | 3700 | 148 | 316 | 109 | MFI [8]: 194; Emax of OD450 nm binding value [10]: 0.07 OD450 nm; MFI [11]: 440; MFI [13]: 7010 MFI; Kd [15]: 0.535 nM; koff [15]: 0.000324 s⁻¹; kon [15]: 606000 M⁻¹ s⁻¹; MFI [17]: 231 MFI; MFI [18]: 511 MFI; MFI [19]: 106; Emax of OD450 nm binding value [21]: 0.06 OD450 nm; MFI [22]: 93; MFI [23]: 503; MFI [24]: 19500 MFI; MFI [25]: 18600 MFI; MFI [26]: 17600 MFI; MFI [28]: 129 MFI
Hab008L1H5-hFc (scFv, part only; not given: VL-VH linker and human IgG1 Fc, V domains shown, not shown: another chain or arm of the molecule; a dimerising Fc or GST; small tags and cut ends) VL: DIQMTQSPSSLSASVGDRVTITCKASQNVGTAVAWYQQKPGKSPKLLIFSASIRYTGVPSRFSGSGSGTDFTLTISSLQPEDFATYYCQQYSSSPYTFGGGTKVEIK VH: EVQLVQSGAEVKKPGASVKVSCKASGYTFTDYYMNWVRRAPGQRLEWMGIINPYNGGTSYNQKFRGRVTITVDKSASTAYMELSSLRSEDTAVYYCSRYDYDYDVEGAMDYWGQGTTVTVSS | 245 | 114 | 711 | 521 | 6530 | 1860 | 8400 | 7750 | 121 | 120 | 123 | 139 | 186 | 333 | 793 | 1530 | 2170 | 127 | 221 | 103 | MFI [8]: 149; Emax of OD450 nm binding value [10]: 0.69 OD450 nm; MFI [11]: 539; MFI [13]: 2940 MFI; MFI [17]: 159 MFI; MFI [18]: 286 MFI; MFI [19]: 106; Emax of OD450 nm binding value [21]: 0.24 OD450 nm; MFI [22]: 102; MFI [23]: 1020; MFI [24]: 18400 MFI; MFI [25]: 18400 MFI; MFI [26]: 12100 MFI; MFI [28]: 116 MFI
Hab008L3H2a-hFc (scFv, part only; not given: VL-VH linker and human IgG1 Fc, V domains shown, not shown: another chain or arm of the molecule; a dimerising Fc or GST; small tags and cut ends) VL: DIVMTQSPDSLAVSLGERATINCKASQNVGTAVAWYQQKPGQSPKLLIFSASIRYTGVPDRFSGSGSGTDFTLTISSLQAEDVAVYYCQQYSSSPYTFGGGTKVEIK VH: EVQLVQSGAEVKKPGASVKVSCKASGYTFTDYYMNWVRQAPGQRLEWMGIINPYNSGTSYNQKFRGRVTLTVDKSASTAYMELSSLRSEDTAVYYCSRYDYDYDVEGAMDYWGQGTTVTVSS | 135 | 90 | 928 | 715 | 7190 | 550 | 7600 | 8200 | 117 | 117 | 121 | 129 | 168 | 255 | 426 | 613 | 2700 | 126 | 240 | 98 | MFI [8]: 97; Emax of OD450 nm binding value [10]: 0.04 OD450 nm; MFI [11]: 307; MFI [13]: 3980 MFI; Kd [15]: 0.529 nM; koff [15]: 0.000405 s⁻¹; kon [15]: 766000 M⁻¹ s⁻¹; MFI [17]: 148 MFI; MFI [18]: 329 MFI; MFI [19]: 89; Emax of OD450 nm binding value [21]: 0.04 OD450 nm; MFI [22]: 85; MFI [23]: 448; MFI [24]: 21300 MFI; MFI [25]: 21400 MFI; MFI [26]: 14800 MFI; MFI [28]: 103 MFI
Hab009VL3aVH1-hFc (Fc fusion, part only; not given: Linker and human IgG1 Fc, not shown: a dimerising Fc or GST) chain, part: DIVMTQSPLSLPVTPGEPASISCRASQTISDYLHWYLQKSHQSPQLLIKYASQSISGVPDRFSGSGSGTDFTLKISRVEAEDVGVYYCQQGHSFPLTFGQGTKLEIKEVQLVQSGAEVKKPGASVKVSCKASGYTFTSYWMHWVRQAPGQRLEWMGTIYPGNSDTRYNQKFKDRVTITADTSASTAYMELSSLRSEDTAVYYCTRSYDYGDLDYWGQGTTVTVSS | – | – | – | 5730 | 12800 | – | 13400 | 13300 | 105 | 128 | 196 | 396 | 673 | 769 | 852 | 954 | 11800 | 458 | 1500 | 204 | –
